# Source: US6368790 (UNIVERSITY OF TENNESSEE RESEARCH, dated 2002)
# T1: Rb1 tumor suppressor protein (human, UniProt P06400 2-928)
# T1 construct: Native protein from K562 lysate; also called pRb1; hypophosphorylated form of Rb1
# T1 sequence (looked up): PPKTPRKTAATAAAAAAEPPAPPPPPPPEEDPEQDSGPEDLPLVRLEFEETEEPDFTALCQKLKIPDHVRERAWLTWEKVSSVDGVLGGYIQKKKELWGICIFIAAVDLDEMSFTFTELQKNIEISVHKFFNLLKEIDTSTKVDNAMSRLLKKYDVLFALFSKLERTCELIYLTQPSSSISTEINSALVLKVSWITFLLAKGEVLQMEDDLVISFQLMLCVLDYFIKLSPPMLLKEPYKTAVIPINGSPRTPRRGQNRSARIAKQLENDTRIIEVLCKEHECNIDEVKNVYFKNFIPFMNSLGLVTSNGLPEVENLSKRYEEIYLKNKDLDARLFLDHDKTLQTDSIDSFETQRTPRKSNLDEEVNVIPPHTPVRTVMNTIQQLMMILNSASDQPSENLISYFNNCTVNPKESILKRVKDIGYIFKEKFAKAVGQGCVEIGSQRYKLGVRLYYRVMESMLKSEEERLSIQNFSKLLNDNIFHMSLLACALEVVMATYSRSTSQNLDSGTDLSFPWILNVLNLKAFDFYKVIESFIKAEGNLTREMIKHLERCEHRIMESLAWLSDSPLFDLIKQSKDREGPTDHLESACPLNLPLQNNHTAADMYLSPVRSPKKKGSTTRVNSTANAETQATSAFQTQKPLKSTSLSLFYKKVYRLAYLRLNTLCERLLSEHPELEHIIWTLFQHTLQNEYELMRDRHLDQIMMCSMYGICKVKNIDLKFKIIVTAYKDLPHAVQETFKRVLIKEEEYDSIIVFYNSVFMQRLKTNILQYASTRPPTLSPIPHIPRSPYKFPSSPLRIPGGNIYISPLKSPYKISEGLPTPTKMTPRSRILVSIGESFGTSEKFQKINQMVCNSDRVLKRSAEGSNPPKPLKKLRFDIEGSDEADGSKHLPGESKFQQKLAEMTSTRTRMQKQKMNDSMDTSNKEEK
# Molecular target: T1, Rb1 tumor suppressor protein
# Experiment: GST pull-down from K562 lysate, Western blot with anti-Rb1
# From the text: As precipitation controls, aliquots of the K562 lysate were immunoprecipitated with anti-Rb1 antibody IF8 or normal rabbit sera. Bound proteins were separated by electrophoresis in a 7% SDS-polyacrylamide gel and transferred to a nitrocellulose membrane. An aliquot of the K-562 crude lysate was included as a positive control for Western analysis. Proteins were visualized by probing the blot with anti-Rb1 antibodies IF-8 or C15. […] Bound proteins were separated by electrophoresis in a 7% SDS-polyacrylamide gel and transferred to a nitrocellulose membrane. Proteins were visualized by probing the blot with anti-Rb1 antibodies IF8 or C15.
# Glutathione S-transferase (GST)-P2P fusion proteins were expressed and recovered on glutathione-sepharose beads as described above. Whole-cell lysates of K562 cells (1 ×10^7 cells/sample) were rocked with the beads for 1 hour at 4° C. and then washed five times with NETN buffer. The beads were then boiled in 1× SDS loading buffer and the proteins separated on SDS-polyacrylamide gels and transferred to nitrocellulose membranes. Competition experiments were performed by adding an excess of the 6X-His E1a fusion protein to the cellular lysates prior to the addition of the GST-P2P fusion proteins. The Rb1 protein was visualized by immunoblotting using anti-Rb1 antibodies IF8 or C15 (Santa Cruz Biotechnology, Santa Cruz, Calif.). These antibodies were also used to immunoprecipitate native Rb1 from the cellular lysates to serve as a positive control following the manufacturers' protocol.
row,binding result,Binder
1,no binding,"GST-P2P (1-332) fusion protein (other, not shown: a dimerising Fc or GST) MMEVKDPNMKGAMLTNTGKYAIPTIDAEAYAIGKKEKPPFLPEEPSSSSEEDDPIPAELLCLICKDIMTDAVVIPCCGNSSCDECIRTTLLESDKHTCPTCHQNDVSPDALIANKFLRQAVNNFKNETGYTKRLRKQLPPFLFLVPPPRPLSQRNLQPRSRSPILRQQDPVVFRYTVSPTCSDTKTAGSCSDSGTLSRLPAPSISSLTSNQSSLAPPVSGNPSSAPAPVPDITATVSISVHSEKSDGPFRDSDNKLLPAAALTSEHSKGASSIAITALMEEKGVPGTSPWNSIFVGQSLLHGQLIPTTGPVRINAARPGGGRPGWEHSNKLG"
2,no binding,"GST-P2P (494-688) fusion protein (other, not shown: a dimerising Fc or GST, also called GST-P2P (484-688)) AQHIHALTLSPSAAHTLDLLHDHPHPPEEAEARSAMIVHMPDLMDIAHARSRSPPYRRYRSRSRSPPEFRGQSPTKRNVPREEKEREYFNRYREVPPPYDIKAYYGRSVDFRDPFEKERYREWERKYREWYEKYYKGYAVGAQPRPSANREDFSPERLLPLNIRNSPFTRGRREDYAAGQSHRNRNLGGNYPEKL"
3,no binding,"GST-P2P (918-1095) fusion protein (other, not shown: a dimerising Fc or GST) RPRSLRKINYLIAREKNEREKRKKSVDKDFESSSMKISKVEGTEIVKPSPKRKMEGDVEKLERTPEKDKIASSTTPAKKIKLNRETGKKIGNAENASTTKEPSEKLESTSSKIKQEKVKGKAKRKVAGSEGSSSTLVDYTSTSSTGGSPVRKSEEKTDTKRTVIKTMEEYNNDNTAPA"
